Here are results for 3 molecules from article PMC12333492, “Co-enzyme-free, enzymatic synthesis of aldehydes from renewable resources with a new and highly efficient alkene cleaving dioxygenase” (Green Chemistry, 2025).

One series deals with T1, MapADO (Moesziomyces aphidis, UniProt W3VHW6).
T1 construct: gene PaG_05861; codon-optimized, pET-28a, His6 tag, E. coli BL21 (DE3), IMAC purified, FeCl2 supplemented
The experiment in a line: continuous UV-Vis initial rate of vanillin formation ([…] nm). The format is biochemical. To be noted: O2 co-substrate; 10 mM potassium phosphate pH 7.4, 30 °C, 2% EtOH; initial-rate value taken (endpoint HPLC fit also printed in the 2nd table, row 3).

Another series concerns the target T2, PAD (Heyndrickxia coagulans, UniProt A0A0C5C6Z1).
T2 construct: gene SB48_HM08orf00536; co-expressed with MapADO on one pET28 vector, E. coli BL21 (DE3) resting cells
T2 sequence (A0A0C5C6Z1 1-167): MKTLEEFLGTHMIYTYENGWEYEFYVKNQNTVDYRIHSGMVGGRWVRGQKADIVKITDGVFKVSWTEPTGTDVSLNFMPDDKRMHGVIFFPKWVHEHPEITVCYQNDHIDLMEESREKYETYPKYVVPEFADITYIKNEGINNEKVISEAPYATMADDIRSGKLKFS
The experiment in a line: whole-cell decarboxylation to 4-vinylguaiacol, HPLC. Conditions: co-expressed with MapADO; 200 mM phosphate pH 7.4, 30 °C. Type of series: cell-based.

Substrate in series [1]: C=Cc1ccc(O)c(OC)c1
The series can be described thus: endpoint HPLC-UV. The format is biochemical, Moesziomyces aphidis. To be noted: O2 co-substrate, 10 mM potassium phosphate pH 7.4, 30 °C, 2% EtOH, endpoint measurement (authors: endpoint overestimates kcat and KM). The source says: (§1) endpoint HPLC-UV on MapADO

Substrate in series [2]: Oc1ccc(/C=C/c2cc(O)cc(O)c2)cc1
The series can be described thus: endpoint HPLC-UV. The format is biochemical, Moesziomyces aphidis. To be noted: O2 co-substrate, 10 mM potassium phosphate pH 7.4, 30 °C, 2% EtOH, endpoint measurement (authors: endpoint overestimates kcat and KM).
Text: as §1

Substrate in series [3]: COc1cc(/C=C/CO)ccc1O
The experiment in a line: UV-Vis spectrophotometric initial rate. Type of series: biochemical, Moesziomyces aphidis. Conditions: O2 co-substrate, 10 mM potassium phosphate pH 7.4, 30 °C, 2% EtOH. The source says: UV-Vis spectrophotometric initial rate on MapADO

For orientation: Km means the substrate concentration at which the rate is half of its maximum. Usually kcat stands for the maximal rate divided by the concentration of active sites.

With `CC=Cc1ccc(O)c(OC)c1` [1b, isoeugenol], at MapADO, the Km amounted to 118 ± 13 µM.

Regarding `COc1cc(/C=C/C(=O)O)ccc1O` [2a, ferulic acid], on PAD, the “whole-cell decarboxylation to 4-vinylguaiacol, HPLC” value was “The decarboxylation was effective and resulted in the rapid accumulation of 2b”.

B1: MapADO (Moesziomyces aphidis) (protein)
chain: MAPTATQEPVPVPVTSKAAPSHGYVHPTDILPSGWPTATDLSGGAQPRRFEGTIFDVMTRGTIPKELHGTFYRIMPDYAQPPTYYKGGELNAPIDGDGTVAAFRFKDGKVDYRQRFVETDRFKVERRARKSMYGLYRNPYTHHPCVRQTVESTANTNVVMHAGRFLAMKENGNAYEMDPHTLKTLGYNPFNLPSKTMTAHPKQCSVTGNLVGFGYEAKGLATKDVYYFEVDPSGKVVRDLWLEAPWCAFIHDCALTPNYLVLMLWPFEANLERMKAGGHHWAYDYTKPITWITIPRGAKSKDEVKYWHWKNGMPIHTASGFEDEQGRIIIDSSLVHGNAFPFFPPDSDEQKKKQEADGTPKAQFVRWTIDPRKDNNEQLPDPEVILDTPSEFPQIDNRFMGVEYSSAFINVFVPDRSDGNKNVFQGLNGLAHYKRKEGTTEWYYAGDNCLIQEPVFSPRSKDAPEGDGFVLAIVDRLDLNRSEVVVIDTRDFTKAVAAVQLPFAIRSGIHGQWIPGEVTPDFETKGLVDLPKEEHWAPLSQSPYDPDA
notes: codon-optimized, pET-28a, His6 tag, E. coli BL21 (DE3), IMAC purified, FeCl2 supplemented
Turning to B1, the Michaelis-Menten constant (Km) is 220 ± 46 µM in “endpoint HPLC-UV [1]”, 49 ± 9 µM in “endpoint HPLC-UV [2]” and 445 ± 125 µM in series [3]. Moreover, the figures for the kcat (in “endpoint HPLC-UV [1]”; in the series “endpoint HPLC-UV [2]”; in series [3]) were 361 ± 12 s⁻¹, 3.2 ± 0.1 s⁻¹ and 90 ± 8 s⁻¹, respectively.
